This is an account of results in patent publication US20190111149A1 (MEDITOPE BIOSCIENCES, published 2019).

For assay [1], the target named is T1, Meditope enabled Lintuzumab.
T1 construct: also called Lintuzumab enabled
Kind of assay: BLI Octet, antibody on anti-human Fc tip, peptide 333 nM.

Assay [2] shares this target. Kind of assay: BLI Octet, antibody on anti-human Fc tip, peptide 12 nM.
The target is the same in assay [3]. In words: BLI Octet, antibody on anti-human Fc tip, peptide 111 nM.
The target is the same in assay [4]. Kind of assay: BLI Octet, antibody on anti-human Fc tip, peptide 37 nM.
Assay [5] shares this target. Kind of assay: BLI Octet, antibody on anti-human Fc tip, peptide 1000 nM; Peptide 20.
The target of assay [6] is T2, Photo optimized trastuzumab; meditope enabled (Tmab).
T2 construct: also called photo-optimized trastuzumab V2; photo-optimized meditope enabled Trastuzumab variant 2
Kind of assay: BLI Octet, antibody on anti-human Fc tips; Peptide 19, Table 9.

The target in assay [7] is T2, Photo optimized trastuzumab; meditope …. Kind of assay: BLI Octet, antibody on anti-human Fc tips.
Assay [8] shares this target. Kind of assay: BLI Octet, antibody on anti-human Fc tips. The source holds these as a separate data set.
For assay [9], the target named is T3, Meditope enabled Trastuzumab.
T3 construct: also called Trastuzumab enabled
Kind of assay: BLI Octet, antibody on anti-human Fc tips.

A further assay deals with MBI_CD19_1; (SAR3419). In words: BLI Octet, antibody on anti-human Fc tips.
Assay [10] has as its target T4, Meditope enabled Ocaratuzumab.
T4 construct: also called Ocaratuzumab enabled
In words: BLI Octet, antibody on anti-human Fc tips.

For assay [11], the target named is T5, Meditope enabled Clivatuzumab.
T5 construct: also called Clivatuzumab enabled
In words: BLI Octet, antibody on anti-human Fc tips.

The target of a further assay is MBI_CD19_2; (MOR208). In words: BLI Octet, antibody on anti-human Fc tips.
In assay [12] the target is T6, Meditope enabled Panitumumab.
T6 construct: also called Panitumumab enabled
Kind of assay: BLI Octet, antibody on anti-human Fc tip, peptide 12 nM.

Assay [13] shares this target. In words: BLI Octet, antibody on anti-human Fc tip, peptide 37 nM.

T2 sequence (heavy, as listed by the source, chain 1 of 2): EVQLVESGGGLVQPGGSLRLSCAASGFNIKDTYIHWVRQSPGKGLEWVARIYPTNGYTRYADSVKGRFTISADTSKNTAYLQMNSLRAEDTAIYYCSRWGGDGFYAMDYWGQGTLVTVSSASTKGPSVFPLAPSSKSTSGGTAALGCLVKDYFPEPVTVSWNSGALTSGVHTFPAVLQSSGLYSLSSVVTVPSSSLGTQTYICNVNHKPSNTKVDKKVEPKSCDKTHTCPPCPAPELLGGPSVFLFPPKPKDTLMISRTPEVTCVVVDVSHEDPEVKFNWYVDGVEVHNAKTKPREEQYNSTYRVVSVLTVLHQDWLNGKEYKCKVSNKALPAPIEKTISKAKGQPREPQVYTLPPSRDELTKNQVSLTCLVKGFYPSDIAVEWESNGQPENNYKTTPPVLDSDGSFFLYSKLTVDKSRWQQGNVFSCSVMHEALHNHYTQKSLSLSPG
T2 sequence (light, as listed by the source, chain 2 of 2): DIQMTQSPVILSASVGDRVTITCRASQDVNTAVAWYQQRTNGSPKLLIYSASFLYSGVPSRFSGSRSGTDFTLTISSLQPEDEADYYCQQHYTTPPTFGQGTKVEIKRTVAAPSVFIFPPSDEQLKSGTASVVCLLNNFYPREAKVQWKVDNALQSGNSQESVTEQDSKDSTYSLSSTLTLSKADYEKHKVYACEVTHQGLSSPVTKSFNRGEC
T1 sequence (VH, as listed by the source, chain 1 of 2): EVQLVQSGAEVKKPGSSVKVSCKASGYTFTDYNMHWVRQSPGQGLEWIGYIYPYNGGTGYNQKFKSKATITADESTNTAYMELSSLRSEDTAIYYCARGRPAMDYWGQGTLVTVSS
T1 sequence (VL, as listed by the source, chain 2 of 2): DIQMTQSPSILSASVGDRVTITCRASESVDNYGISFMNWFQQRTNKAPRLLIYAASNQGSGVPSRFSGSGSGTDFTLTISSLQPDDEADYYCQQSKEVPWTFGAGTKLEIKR
T6 sequence (VH, as listed by the source, chain 1 of 2): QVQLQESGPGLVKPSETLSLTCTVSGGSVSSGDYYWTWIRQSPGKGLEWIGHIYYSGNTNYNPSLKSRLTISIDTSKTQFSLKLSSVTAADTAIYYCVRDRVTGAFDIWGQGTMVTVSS
T6 sequence (VL, as listed by the source, chain 2 of 2): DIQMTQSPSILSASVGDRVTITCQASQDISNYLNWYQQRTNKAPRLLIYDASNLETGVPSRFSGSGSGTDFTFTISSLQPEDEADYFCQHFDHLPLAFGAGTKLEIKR
Sequence of MBI_CD19_2; (MOR208) (heavy, as listed by the source, chain 1 of 2): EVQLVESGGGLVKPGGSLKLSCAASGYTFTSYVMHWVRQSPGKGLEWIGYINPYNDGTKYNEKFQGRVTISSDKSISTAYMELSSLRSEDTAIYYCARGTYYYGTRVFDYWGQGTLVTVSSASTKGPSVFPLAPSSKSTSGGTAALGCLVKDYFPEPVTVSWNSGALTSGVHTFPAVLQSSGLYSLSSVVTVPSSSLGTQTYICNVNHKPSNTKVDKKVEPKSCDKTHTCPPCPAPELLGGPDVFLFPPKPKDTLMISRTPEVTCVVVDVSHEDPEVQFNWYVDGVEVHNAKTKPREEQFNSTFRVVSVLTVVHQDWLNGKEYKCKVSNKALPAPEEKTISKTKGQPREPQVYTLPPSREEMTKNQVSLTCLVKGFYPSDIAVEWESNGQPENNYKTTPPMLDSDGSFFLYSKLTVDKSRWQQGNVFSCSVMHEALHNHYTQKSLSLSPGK
Sequence of MBI_CD19_2; (MOR208) (light, as listed by the source, chain 2 of 2): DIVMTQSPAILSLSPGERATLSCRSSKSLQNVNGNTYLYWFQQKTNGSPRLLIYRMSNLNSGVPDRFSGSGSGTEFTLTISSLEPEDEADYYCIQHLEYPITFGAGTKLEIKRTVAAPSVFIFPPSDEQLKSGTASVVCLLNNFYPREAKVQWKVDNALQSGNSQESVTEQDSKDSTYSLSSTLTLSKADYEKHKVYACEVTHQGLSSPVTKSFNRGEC
T4 sequence (heavy, as listed by the source, chain 1 of 2): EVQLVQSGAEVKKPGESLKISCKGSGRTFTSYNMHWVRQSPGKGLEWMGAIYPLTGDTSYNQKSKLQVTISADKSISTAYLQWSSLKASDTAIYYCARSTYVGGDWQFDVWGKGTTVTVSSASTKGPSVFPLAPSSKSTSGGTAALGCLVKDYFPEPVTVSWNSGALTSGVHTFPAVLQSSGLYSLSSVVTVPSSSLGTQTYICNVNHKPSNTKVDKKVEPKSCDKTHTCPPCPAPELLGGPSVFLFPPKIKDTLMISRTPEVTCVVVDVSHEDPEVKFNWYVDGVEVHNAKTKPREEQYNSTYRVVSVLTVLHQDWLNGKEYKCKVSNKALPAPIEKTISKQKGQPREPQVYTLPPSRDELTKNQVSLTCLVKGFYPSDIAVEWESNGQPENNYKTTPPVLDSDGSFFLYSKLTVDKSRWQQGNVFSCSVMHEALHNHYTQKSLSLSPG
T4 sequence (light, as listed by the source, chain 2 of 2): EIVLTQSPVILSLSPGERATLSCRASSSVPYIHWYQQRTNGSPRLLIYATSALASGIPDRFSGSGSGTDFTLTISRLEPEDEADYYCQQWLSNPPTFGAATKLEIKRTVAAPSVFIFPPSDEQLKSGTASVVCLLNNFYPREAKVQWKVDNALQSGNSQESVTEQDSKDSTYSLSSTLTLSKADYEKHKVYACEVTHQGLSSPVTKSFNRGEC
Sequence of MBI_CD19_1; (SAR3419) (heavy, as listed by the source, chain 1 of 2): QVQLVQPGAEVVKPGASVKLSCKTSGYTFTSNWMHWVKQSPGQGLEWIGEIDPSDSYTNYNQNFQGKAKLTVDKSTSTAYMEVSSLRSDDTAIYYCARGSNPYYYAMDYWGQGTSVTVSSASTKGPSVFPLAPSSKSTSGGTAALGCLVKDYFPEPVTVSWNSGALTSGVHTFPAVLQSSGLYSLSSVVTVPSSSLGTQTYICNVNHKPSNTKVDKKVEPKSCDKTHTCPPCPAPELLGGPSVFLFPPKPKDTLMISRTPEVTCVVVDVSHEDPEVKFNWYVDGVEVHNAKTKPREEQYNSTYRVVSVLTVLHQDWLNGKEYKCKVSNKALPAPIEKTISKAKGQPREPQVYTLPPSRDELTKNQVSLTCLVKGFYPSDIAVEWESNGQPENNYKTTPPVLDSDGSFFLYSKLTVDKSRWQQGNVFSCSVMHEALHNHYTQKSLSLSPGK
Sequence of MBI_CD19_1; (SAR3419) (light, as listed by the source, chain 2 of 2): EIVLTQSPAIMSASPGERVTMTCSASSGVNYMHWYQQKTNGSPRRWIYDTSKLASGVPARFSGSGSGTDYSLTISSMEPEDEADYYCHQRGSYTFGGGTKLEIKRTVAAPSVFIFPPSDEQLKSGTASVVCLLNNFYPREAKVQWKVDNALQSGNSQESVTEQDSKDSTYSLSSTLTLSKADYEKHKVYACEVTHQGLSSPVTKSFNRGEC
T3 sequence (heavy, as listed by the source, chain 1 of 2): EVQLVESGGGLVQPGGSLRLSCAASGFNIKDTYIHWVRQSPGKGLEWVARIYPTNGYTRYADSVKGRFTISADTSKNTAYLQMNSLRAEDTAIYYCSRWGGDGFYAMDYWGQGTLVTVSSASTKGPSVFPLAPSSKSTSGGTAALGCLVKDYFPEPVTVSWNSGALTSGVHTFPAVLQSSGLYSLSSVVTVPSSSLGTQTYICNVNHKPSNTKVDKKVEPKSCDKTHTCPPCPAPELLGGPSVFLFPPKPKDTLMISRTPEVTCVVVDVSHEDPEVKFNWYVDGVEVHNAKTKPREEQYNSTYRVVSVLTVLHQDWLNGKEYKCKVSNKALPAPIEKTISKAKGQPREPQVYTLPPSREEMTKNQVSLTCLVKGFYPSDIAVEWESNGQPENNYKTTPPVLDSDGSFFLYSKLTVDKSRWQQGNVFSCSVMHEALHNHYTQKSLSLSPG
T3 sequence (light, as listed by the source, chain 2 of 2): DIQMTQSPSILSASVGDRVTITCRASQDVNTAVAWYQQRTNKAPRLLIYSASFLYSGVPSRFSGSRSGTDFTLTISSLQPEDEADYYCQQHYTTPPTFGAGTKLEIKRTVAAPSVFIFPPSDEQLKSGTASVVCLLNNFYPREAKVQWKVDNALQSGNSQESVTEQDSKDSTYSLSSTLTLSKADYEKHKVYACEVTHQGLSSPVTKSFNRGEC
T5 sequence (heavy, as listed by the source, chain 1 of 2): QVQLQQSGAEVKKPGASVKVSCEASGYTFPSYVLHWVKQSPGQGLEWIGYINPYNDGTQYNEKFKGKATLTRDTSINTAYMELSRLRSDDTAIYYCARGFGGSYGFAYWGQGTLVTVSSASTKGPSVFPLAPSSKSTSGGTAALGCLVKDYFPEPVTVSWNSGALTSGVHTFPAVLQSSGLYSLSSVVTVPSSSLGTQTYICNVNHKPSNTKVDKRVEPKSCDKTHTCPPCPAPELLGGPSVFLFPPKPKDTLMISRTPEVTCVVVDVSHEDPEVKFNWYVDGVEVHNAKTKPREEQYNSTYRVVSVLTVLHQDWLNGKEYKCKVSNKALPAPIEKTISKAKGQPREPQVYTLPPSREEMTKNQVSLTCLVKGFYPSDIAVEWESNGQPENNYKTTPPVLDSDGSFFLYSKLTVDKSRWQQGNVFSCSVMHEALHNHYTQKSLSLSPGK
T5 sequence (light, as listed by the source, chain 2 of 2): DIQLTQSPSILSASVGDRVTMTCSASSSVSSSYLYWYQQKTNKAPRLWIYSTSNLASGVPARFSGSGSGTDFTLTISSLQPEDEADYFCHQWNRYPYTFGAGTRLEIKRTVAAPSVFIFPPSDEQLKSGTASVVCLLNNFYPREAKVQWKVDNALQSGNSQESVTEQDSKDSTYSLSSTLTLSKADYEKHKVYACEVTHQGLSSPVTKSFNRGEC

B1: Peptide 20: Ac-…XRCGGGK with Duostatin; -Glu-vc-PAB-Duostatin-; X=(S)-2-amino-6-(3-methyl-3H-diazirin-3-yl) hexanoic acid (peptide)
peptide: not shown
modifications: N-terminal acetyl; X at position 10 = (S)-2-amino-6-(3-methyl-3H-diazirin-3-yl)hexanoic acid; -Glu-vc-PAB-Duostatin conjugated
In the case of B1, the Kd was 6550 nM in assay [1]; 246 nM in [2]; 3340 nM in assay [3]; 1210 nM in assay [4]; 19800 nM in assay [5].

B2: Peptide 19: Ac-…XRCGGGK with Duostatin; -Glu-vc-PAB-Duostatin-; X = (S)-2-amino-5-(3-methyl-3H-diazirin-3-yl) pentanoic acid (peptide)
peptide: not shown
modifications: N-terminal acetyl; X10 = (S)-2-amino-5-(3-methyl-3H-diazirin-3-yl)pentanoic acid; Glu-vc-PAB-Duostatin conjugated
notes: also called Peptide 19 (with Duostatin); Peptide 19 (with 1 Duostatin per peptide, DAR 2)
For the molecule B2, the Kd in assay [6] was determined as 120 nM; in [7], 42.8 nM; in assay [8] it was 33.8 nM; in assay [9], 149 nM; with MBI_CD19_2; (MOR208) it was 33.8 nM. For the same molecule, the binding result (with MBI_CD19_1; (SAR3419); in assay [10]; in [11]) was “no binding” each time.

B3: Peptide 19: Ac-…XRCGGGK with Duostatin; -Glu-vc-PAB-Duostatin-; X=(S)-2-amino-5-(3-methyl-3H-diazirin-3-yl) pentanoic acid (peptide)
peptide: not shown
modifications: N-terminal acetyl; X at position 10 = (S)-2-amino-5-(3-methyl-3H-diazirin-3-yl)pentanoic acid; -Glu-vc-PAB-Duostatin conjugated
notes: 5-carbon chain at position 10
Take B3: the Kd is 1170 nM in assay [1]; 55.5 nM in assay [2]; less than 0.001 nM in assay [12]; 3000 nM in assay [3]; 5680 nM in [4]; less than 0.001 nM in assay [13].
